Experimental data: IntAct's records for PubMed 21708944

B1: Chromosomal replication initiator protein DnaA (Escherichia coli (strain K12)), P03004 (parent)
chain: MSLSLWQQCLARLQDELPATEFSMWIRPLQAELSDNTLALYAPNRFVLDWVRDKYLNNINGLLTSFCGADAPQLRFEVGTKPVTQTPQAAVTSNVAAPAQVAQTQPQRAAPSTRSGWDNVPAPAEPTYRSNVNVKHTFDNFVEGKSNQLARAAARQVADNPGGAYNPLFLYGGTGLGKTHLLHAVGNGIMARKPNAKVVYMHSERFVQDMVKALQNNAIEEFKRYYRSVDALLIDDIQFFANKERSQEEFFHTFNALLEGNQQIILTSDRYPKEINGVEDRLKSRFGWGLTVAIEPPELETRVAILMKKADENDIRLPGEVAFFIAKRLRSNVRELEGALNRVIANANFTGRAITIDFVREALRDLLALQEKLVTIDNIQKTVAEYYKIKVADLLSKRRSRSVARPRQMAMALAKELTNHSLPEIGDAFGGRDHTTVLHACRKIEQLREESHDIKEDFSNLIRTLSS
partner: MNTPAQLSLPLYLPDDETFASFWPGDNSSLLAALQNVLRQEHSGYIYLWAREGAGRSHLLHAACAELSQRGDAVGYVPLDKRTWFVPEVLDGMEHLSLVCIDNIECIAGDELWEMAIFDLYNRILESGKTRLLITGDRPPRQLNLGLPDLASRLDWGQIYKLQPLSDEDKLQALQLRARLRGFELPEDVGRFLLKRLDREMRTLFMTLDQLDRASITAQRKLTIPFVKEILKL

Variants of: B1
Settings: with hda_ecoli hda

effect of a mutation on the interaction | Variant
decreasing interaction | L422G
decreasing interaction | L422A
decreasing interaction | P423A
